Where a chain is given by its changes, count along the chain named. Values joined by “and” are separate entries in the source; they are usually repeats but may differ in a detail not shown here. Equal entries are not always repeated.
How the values were obtained:
[1] = target: bt-MalE, hybrid between a peptide that can be biotinylated in vivo by E. coli and MalE (Escherichia coli)
[2] = target: T1, maltose binding protein MalE from Escherichia coli (Escherichia coli, UniProt P0AEX9 27-396 = MBP); assay: competition Biacore in solution, buffer L2; buffer L2
[3] = target: T1, maltose binding protein MalE from …; assay: competition Biacore in solution, buffer M2; buffer M2
bovine serum albumin = target: T2, bovine serum albumin (bovine, UniProt P02769 25-607); assay: fluorescence titration of 0.3 µM DarpOff7(N45ANBD) by BSA, 25 °C, buffer M1
T2 construct: also called BSA

[4] = target: T1, maltose binding protein MalE from …; assay: ΔG(wt)-ΔG(mut) from Kd by competition Biacore (reference itself)

T2 sequence (P02769 25-607 limits assumed): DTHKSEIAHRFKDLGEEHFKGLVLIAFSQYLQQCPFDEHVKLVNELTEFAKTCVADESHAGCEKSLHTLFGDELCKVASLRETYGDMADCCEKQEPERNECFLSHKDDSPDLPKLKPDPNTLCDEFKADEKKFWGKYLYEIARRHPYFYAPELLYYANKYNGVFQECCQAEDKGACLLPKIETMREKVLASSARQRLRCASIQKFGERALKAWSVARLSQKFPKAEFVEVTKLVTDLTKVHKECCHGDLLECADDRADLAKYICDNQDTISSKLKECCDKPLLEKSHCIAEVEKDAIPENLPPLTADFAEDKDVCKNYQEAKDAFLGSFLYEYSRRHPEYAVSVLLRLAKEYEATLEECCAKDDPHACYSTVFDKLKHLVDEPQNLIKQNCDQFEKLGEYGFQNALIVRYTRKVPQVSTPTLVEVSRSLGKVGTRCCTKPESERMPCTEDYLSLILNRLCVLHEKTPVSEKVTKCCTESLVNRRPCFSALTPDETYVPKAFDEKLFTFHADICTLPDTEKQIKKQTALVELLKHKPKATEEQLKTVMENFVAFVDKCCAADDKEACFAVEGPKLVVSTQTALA

B1: DarpOff7(wt) (designed binder)
chain: MRGSHHHHHHGSDLGRKLLEAARAGQDDEVRILMANGADVNAADNTGTTPLHLAAYSGHLEIVEVLLKHGADVDASDVFGYTPLHLAAYWGHLEIVEVLLKNGADVNAMDSDGMTPLHLAAKWGYLEIVEVLLKHGADVNAQDKFGKTAFDISIDNGNEDLAEILQKLN
koff [1]: 0.0051 s⁻¹ and 0.0062 s⁻¹ and 0.0061 s⁻¹ | kon [1]: 660000 M⁻¹ s⁻¹ and 250000 M⁻¹ s⁻¹ and 550000 M⁻¹ s⁻¹ | Kd [2]: 11 nM | Kd [3]: 5.6 nM

B2: DarpOff7(N45ANBD) (designed binder)
chain: B1 chain with N45C
notes: also called conjugate at position Asn45; Asn45
binding result (bovine serum albumin): no binding (tested: 2.4 µM)

B3: DarpMbp3-16(wt) (designed binder)
chain: MRGSHHHHHHGSDLGKKLLEAAHAGQDDEVRILMANGADVNAMDNFGVTPLHLAAYWGHFEIVEVLLKYGADVNASDATGDTPLHLAAKWGYLGIVEVLLKYGADVNAQDKFGKTAFDISIDNGNEDLAEILQKLN
ΔΔG [4]: 0 kcal/mol
